Test results taken from the supplement of paper PMC9170038.

test system: MS2 coat protein; experiment: apparent KD of MS2 coat protein; higher = weaker reporter binding; conditions: Eterna round: R107; input ligand: arginine 13.2 mM
Experimental: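 RNA-MaP round R107: designed RNA switches with theophylline, tryptophan, arginine or FMN aptamers are transcribed on-chip within common flanks. They are titrated with SNAP-549-labelled MS2 coat protein in RNA-MaP buffer (100 mM Tris pH 7.5, 80 mM KCl, 4 mM MgCl2), without ligand or with the indicated ligand. Median apparent KD per design.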

Sequence | apparent KD of MS2 coat protein [nM]
AGUUGACGAAAGUCAGCAACAUGAUCCGAAGGAGCGGGCGAAAGCCCAGGUAGGUCGCGGACAUGAGGAUCACCCAUGUCUCCUU [MAT - Exclusion Arginine A - Mod of Eli - D12] | 37.8
AGUGUUAUAACUGAUACCAGACCUUUGCUUAUACAUGAGGAUCACCCAUGUAAAAUGGCGGUCCCUUGGCAGCAGAGAAUACGCA [#09 Same State - Theophylline B] | 52.2
UAAAUACAUGAGGAUCACCCAUGUUUGGAUACCAGAUAUGACAUUAUCCCUUGGCAGCCAUUCGUUCCAAAUGCUAUUGUGAAGG [theeternabot_sameState_MS2_Theo_A_26] | 20.6
UAAUAAGUGCCGGUUCUCAGAUCCUCAUGUCGAGGACCGGUACGGCCGCCACUCGAAACAUGAGGAUCACCCAUGUAAUAAUAAU [#08 Exclusion Tryptophan A] | 47.8
UACAUGAGGAUCACCCAUGUCGGCAGGGAAGGAGCGGCAAUAAAGCCAGGUAGGUCGCCCAUUAGUAUUUAUAAAUAAAUAUCCA [Same State - Arginine A] | 53.6
GGUGGCGUGACGGAUACCAGCCACCGCGGCAACGCAACAUGAGGAUCACCCAUGUUGGGUGGCCCUUGGCAGCUGUCGUGCGGCG [#1 Same State - Theophylline B Attempt #23 (HarryS)] | 47.4
UUAUAAGUACCGGUCCUCAGAUCCUCAUGACGAGGACCGGUACGGCCGCCACUCGAAACAUGAGGAUCACCCAUGUAAUAAUACU [Brourdmod08] | 21
UGAGAACAUGUCUUUAAGUUUACCUCUGAUACCAGAUUGAAAGGCAUCCCUUGGCAGCAGCAUACAUGAGGAUCACCCAUGUCCU [theeternabot_exclusion_MS2_Theo_A_12] | 64.4
CAAACAUGAGGAUCACCCAUGUAAUCAGAUACCAGUGACGAAAGUCACCCUUGGCAGCUGAGUACAUAUUGGCAGAGGUGUUUGA [EThA NP+V+V2 #7] | 41.4
CCUCAUGAACAUGAGGAUCACCCAUGUACACGAGGACCGGUACGGCCGCCACUCGAAUAACCUAAAUAUAAAUAAUAAUAAUAGG [5' end split MS2] | 14.6
UGUAUGUGAUCUGAUACCAGUCCAACUGGUAAAACAUGAGGAUCACCCAUGUAAAAUUGGGACCCUUGGCAGCAGAUCGCAUACU [ThBS 2] | 259
AUUUUCGUAGGUUAAAGUUUAGAAACUGAAGGAGCGUGGUAUUACACAGGUAGGUCGCAGAUUUUACAUGAGGAUCACCCAUGUU [JR_ExcArginiA_Sub011] | 14.9
GGGUACAUCGCGGCCGCCACUCAUGUAAAUACCUGAGGAUCACCCUGGUCGAUGGAGACAUCGAAGAGGACCGGGUGAUGUACCG | 91.2
ACAACAUGAGGCGAUACCAGAGGCAACAUGAGGAUCACCCAUGUUCACCCAUGUGAUCACCUCCCUUGGCAGCGCACAUGAGGAU [Same State - Theophylline B #1] | 13.7
AGCACAUGAGGAUCACCCAUGUGUGGGUACCGAGGACCGGUACGGCCGCCACUCGCAGGACAUGAGGAUCACCCAUGUGCCGCCG [SSTA DOUBLE!!! :-D #7] | 19.7
ACAUGAGGAUCACCCAUGUUCCUCAUUGAUACCAGUGAAUUUAGACGCCCUUGGCAGCGAGUUUUUUUAUAAGUUUUUUUUUUUU [6.J] | 276
AUAACAUGAGGAUCACCCAUGUAACCUGAAGGAGCGGACGAAAGUCCAGGUAGGUCGCAGGACUCCUUCAACAUGGGAGAGGGAG [SSArg-A #27 NuPack the Brourd] | 120
AAUAAGUACUUUGAUACCAGCCUGCCAUCAUGCUAAUUUACAUGAGGAUCACCCAUGUUAGGCCCUUGGCAGCAAAGUGCAAUAA [XTheo B #1] | 12.8

Sequence | apparent KD of MS2 coat protein [nM]
GGGCCUGUAAGCAGACCCACAGCGGGUGAUACCAGCAAUAAAACUUGCCCUUGGCAGCACACAGCUACAUGAGGAUCACCCAUGU [Rausis] | 36.4
AGUCUGGACUCGGCCGCCACUCGUGAUGCUUUGGCACAUGAGGAUCACCCAUGUGGUCGGCCUUAGAGGACCGGGAGUACCAGUC [Ariaredle] | 52.3
AGCCUAUUACAUGAGGAUCACCCAUGUGAUACCAGUCAGGAAACUGACCCUUGGCAGCGCAUGAGGAUCACCCAUGCGCUAGGCA [Omei Theo A Exc A v5] | 9.15
AGAGUCUAGUCGGCCGCCACUCAUGUCCAAAGGACAUGAGGAUCACCCAUGUACCUAAGGUACAUGAGGACCGGGACUGGACUCA [Omei Tryp B SS C v5] | 13.1
UUGAACAUGAGGAUCACCCAUGUGGAUGAUACCAGCUAAAACAUAAGCCCUUGGCAGCAUUAAAAUGAAAUAUCGAAAAGGAAAG [theeternabot_sameState_MS2_Theo_A_1] | 95.1
UUUUUCGCGGGUGAUACCAGCAGAGUUGUACUGGUCUGGUACAUGAGGAUCACCCAUGUUUGCCCUUGGCAGCGCUCGGGAGAAG [#23 Exclusion-TheophyllineB] | 29.3
UCACAUGAGGAUCACCCAUGUACAACUGAAGGAGCGAGACAAAACUCAGGUAGGUCGCAGAAUAAACAAUAGCAUACGACAUGGG [Exclusion Arginine A GF 19] | 44.6
AAUUAAACAUCGGCCGCCACUUACUCAUGAGGUAACAACAUGAGGAUCACCCAUGUUUGAGGAUCAAGGACCGGGAUGUAAUAAU [AstrosSSTryB#2] | 23.2
GGUGGAGGCGUGGGACUUGUCUGAACGGAUACCAGCCACAUCACGGGCCCUUGGCAGCUGUACAUGAGGAUCACCCAUGUCGGUC [Atestevete] | 33.6
UAUCCACAUGAGGAUCACCCAUGUAGGGAAGGAGCGGUGGUUGCACCAGGUAGGUCGCCUUGCUGAGGAUAACCGGUGGAAUCGU [Exclusion - Arginine A (Freestyle 28)] | 32.8
AGUACAUGAGGAUCACCCAUGUGCCGGUAACGAGGACCGGUACGGCCGCCACUCGAUGUACCUCAAUUUGAUUGAGAUAAGAAAA [Anorbian] | 34.2
AUUCAUGAAAACAUGACAUAGGGAUCACUCCGAGGACCGGUACGGCCGCCACUCGCGAGGAGGCACAUGAGGAUCACCCAUGUUA [SS Tryp A #3] | 36.8
GGACUAACCAGAAGGAGCGACACGCAGAAACUGCAAUUUCCUCUACACGAGGAUCACCCGUGUCAGGUAGGUCGCUGGUUAGUCG | 50
GAUGGAAUAAGAGAUACCAGACACAAUUUAGCAUGUAUAUACAUGAGGAUCACCCAUGUAGUCCCUUGGCAGCUCUGGUUAGUGU [theeternabot_exclusion_MS2_Theo_B_48] | 21.4
GCACGACAUGAGGAUCACCCAUGUGCCGAUACCAGCCGGAUAUACGGCCCUUGGCAGCGGAGUGGAUCCGGAGGACCAUGGGUAA [Same State Theophylline A GF7] | 2.16
AUAACUGCCAAGGAUCAUGGGUGAGCAGAUACCAGCUAGGAAACUAGCCCUUGGCAGCUGCAACAUGAGGAUCACCCAUGUAAUA [(T)'-(M)'-(T1)-(T2)-(M1)-(M2)_Design8] | 38.5
AAAUAAAUACAUGAGGAUCACCCAUGUGAAGGAGCGCGCGUUAGCGCAGGUAGGUCGCACAUGAACUCCAAAGUGCGAAAGCACA [MAT - Exclusion Arginine A - Mod of Eli - D9] | 14.5
AAUGAACAUGAGGAUCACCCAUGUCGUGAUACCAGCCGUAAGAGUGGCCCUUGGCAGCGCCAUGAGGACAACAACAUACAUGAGG [Same State Theophylline A] | 22.9
